Test results from paper PMC10133702.
pIC50: −log10 of the molar value. Read-outs that look alike come from different tables or passages of the source.

What was measured:
Assay in all cases: radioligand binding
[1] = target: [T184K]Ls-AChBP, Ub-tagged (Lymnaea stagnalis) (UniProt P58154)
[2] = target: Ubiquitin (Ub)-tagged Ls-AChBP, wild type (Lymnaea stagnalis) (UniProt P58154)
[3] = target: [T184F S186E]Ls-AChBP, Ub-tagged (Lymnaea stagnalis) (UniProt P58154)
[4] = target: [S186E]Ls-AChBP, Ub-tagged (Lymnaea stagnalis) (UniProt P58154)
[5] = target: [T184F]Ls-AChBP, Ub-tagged (Lymnaea stagnalis) (UniProt P58154)
[6] = target: [Q55K]Ls-AChBP, Ub-tagged (Lymnaea stagnalis) (UniProt P58154)
[7] = target: [H69A]Ls-AChBP, Ub-tagged (Lymnaea stagnalis) (UniProt P58154)
[8] = target: [R23D]Ls-AChBP, Ub-tagged (Lymnaea stagnalis) (UniProt P58154)
[9] = target: Ubiquitin (Ub)-tagged Ls-AChBP, wild type (Lymnaea stagnalis) (UniProt P58154); remark: listed apart in the source

Substance	pIC50 [1]	pIC50 [2]	pIC50 [3]	pIC50 [4]	pIC50 [5]	pIC50 [6]	pIC50 [7]	pIC50 [8]	pIC50 [9]
VxXXB-C(19–50), full-length C-terminal domain of αD-conotoxin VxXXB (peptide)	< 4.00	5.14	7.52	7.05	6.24	4.53	5.00	5.00	5.00
VxXXB-C(21–50), C-terminal domain of αD-conotoxin VxXXB (peptide)	4.26	5.00	7.30	7.40	5.14	4.44	–	–	–
VxXXB-CNC, full-length synthetic VxXXB (peptide)	–	–	8.40	–	–	–	< 5.00	< 5.00	6.10
native αD-conotoxin VxXXB (from UniProt P0C1W6 46-95) (natural protein)	–	7.96	9.00	–	–	–	–	–	–
